Measured values from FireProtDB (doi:10.1007/s00775-020-01777-0).

B1: Cytochrome c-553, B8C6L5 (parent)
chain: MKLTIVAALIASASAWTTPKSFESVKAAVAGAAVTAGVAVSPAFAGDVGAGEQIFNANCAACHAGGQNVIMPDKTLEKEALEQYLAGGRNEKAVMTQVTNGKNAMPAFGGRLSDEDIANVASYVIATSEAGWD

Variants of: B1
Conditions: Thalassiosira pseudonana; pH 7.4; Thermal; UV/Vis spectroscopy; HEPES; transition: 2; reversible: > 90% (Yes); whole UniProt chain shown

Variant	Tm	unfolding enthalpy (van 't Hoff)
MKLTIVAALIASASAWTTPKSFESVKAAVAGAAVTAGVAVSPAFAGDVGAGEQIFNANCAACHAGGQNVIMPDKTLEKEALEQYLSGGRNEKAVMTQVTNGKNAMPAFGGRLSDEDIANVASYVIATSEAGWD [A86S]	38.9 °C	43.7 kcal/mol
MKLTIVAALIASASAWTTPKSFESVKAAVAGAAVTAGVAVSPAFAGDVGAGEQIFNANCAACHAGGQNVIMPDKTLEKEALEQYLAGGRNEKSVMTQVTNGKNAMPAFGGRLSDEDIANVASYVISTSEAGWD [A93S A126S]	32.2 °C	38.2 kcal/mol
MKLTIVAALIASASAWTTPKSFESVKAAVAGAAVTAGVAVSPAFAGDVGAGEQIFNANCAACHAGGQNVIMPDKTLEKEALEQYLAGGRNEKSVMTQVTNGKNAMPAFGGRLSDEDIANVASYVIATSEAGWD [A93S]	35.4 °C	45.9 kcal/mol
MKLTIVAALIASASAWTTPKSFESVKAAVAGAAVTAGVAVSPAFAGDVGAGEQIFNANCAACHAGGQNVIMPDKTLEKEALEQYLAGGRNEKAVMTQVTNGKNAMPAFGGRLSDEDIANVASYVISTSEAGWD [A126S]	35.1 °C	40.8 kcal/mol
